# Results: patent US20080274967
# T1: PEDF purified from human plasma (plPEDF)
# T1 chain: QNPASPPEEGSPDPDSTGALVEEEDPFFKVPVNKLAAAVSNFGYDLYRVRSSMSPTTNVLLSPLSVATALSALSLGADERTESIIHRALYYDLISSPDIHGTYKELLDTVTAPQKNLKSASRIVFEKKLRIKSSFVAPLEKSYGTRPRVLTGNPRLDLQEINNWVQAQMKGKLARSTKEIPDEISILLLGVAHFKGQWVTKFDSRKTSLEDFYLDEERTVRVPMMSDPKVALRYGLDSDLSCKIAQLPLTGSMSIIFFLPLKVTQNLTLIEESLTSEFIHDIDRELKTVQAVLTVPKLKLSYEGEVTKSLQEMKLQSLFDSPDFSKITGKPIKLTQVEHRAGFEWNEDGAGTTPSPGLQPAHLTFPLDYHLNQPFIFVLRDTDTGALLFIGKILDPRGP
# T2: PEDF S227E variant
# T2 chain: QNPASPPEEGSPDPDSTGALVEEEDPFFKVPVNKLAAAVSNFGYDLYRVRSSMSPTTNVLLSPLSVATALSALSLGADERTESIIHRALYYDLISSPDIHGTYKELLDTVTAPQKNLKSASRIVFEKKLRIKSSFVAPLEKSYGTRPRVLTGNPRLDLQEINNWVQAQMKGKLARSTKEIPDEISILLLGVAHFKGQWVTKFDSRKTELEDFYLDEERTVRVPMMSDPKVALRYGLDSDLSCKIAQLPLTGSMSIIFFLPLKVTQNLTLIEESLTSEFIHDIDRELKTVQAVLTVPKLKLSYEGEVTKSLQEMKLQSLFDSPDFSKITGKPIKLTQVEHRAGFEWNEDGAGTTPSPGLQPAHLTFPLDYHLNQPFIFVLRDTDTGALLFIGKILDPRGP
# T3: PEDF EEA variant (S24,114E, 227A)
# T3 chain: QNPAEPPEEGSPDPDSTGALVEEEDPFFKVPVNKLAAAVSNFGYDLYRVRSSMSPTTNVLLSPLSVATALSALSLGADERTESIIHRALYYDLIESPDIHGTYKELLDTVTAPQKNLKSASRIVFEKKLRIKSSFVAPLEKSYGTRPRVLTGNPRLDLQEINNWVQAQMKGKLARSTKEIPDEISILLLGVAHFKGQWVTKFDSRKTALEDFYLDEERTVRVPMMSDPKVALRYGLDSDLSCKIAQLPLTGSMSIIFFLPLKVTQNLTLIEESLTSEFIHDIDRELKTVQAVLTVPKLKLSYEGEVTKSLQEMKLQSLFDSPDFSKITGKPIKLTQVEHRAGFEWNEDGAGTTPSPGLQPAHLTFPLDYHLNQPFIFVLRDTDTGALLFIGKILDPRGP
# T4: PEDF S227A variant
# T4 chain: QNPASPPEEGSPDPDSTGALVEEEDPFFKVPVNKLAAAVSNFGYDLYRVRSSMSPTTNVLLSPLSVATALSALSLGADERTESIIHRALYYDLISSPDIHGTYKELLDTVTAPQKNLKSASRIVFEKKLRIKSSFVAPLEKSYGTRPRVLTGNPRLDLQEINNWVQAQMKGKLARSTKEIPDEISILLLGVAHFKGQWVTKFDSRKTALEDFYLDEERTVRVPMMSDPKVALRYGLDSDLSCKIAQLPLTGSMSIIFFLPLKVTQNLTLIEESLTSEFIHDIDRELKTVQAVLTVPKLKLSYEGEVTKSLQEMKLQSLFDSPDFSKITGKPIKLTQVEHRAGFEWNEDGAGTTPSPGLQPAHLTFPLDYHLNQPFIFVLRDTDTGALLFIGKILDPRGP
# T5: PEDF AAE variant (S24,114A, 227E)
# T5 chain: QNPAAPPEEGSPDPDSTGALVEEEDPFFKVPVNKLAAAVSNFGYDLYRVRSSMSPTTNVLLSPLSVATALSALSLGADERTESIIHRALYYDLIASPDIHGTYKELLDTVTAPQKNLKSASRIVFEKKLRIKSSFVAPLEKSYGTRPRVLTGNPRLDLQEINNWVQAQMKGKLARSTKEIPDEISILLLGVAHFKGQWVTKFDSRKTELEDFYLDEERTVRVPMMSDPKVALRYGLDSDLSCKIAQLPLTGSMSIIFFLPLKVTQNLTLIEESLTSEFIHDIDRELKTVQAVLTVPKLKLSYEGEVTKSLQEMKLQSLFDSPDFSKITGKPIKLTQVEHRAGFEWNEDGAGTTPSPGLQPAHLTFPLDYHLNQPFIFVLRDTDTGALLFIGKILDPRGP
# T6: Recombinant human pigment epithelium derived factor (rPEDF)
# T6 chain: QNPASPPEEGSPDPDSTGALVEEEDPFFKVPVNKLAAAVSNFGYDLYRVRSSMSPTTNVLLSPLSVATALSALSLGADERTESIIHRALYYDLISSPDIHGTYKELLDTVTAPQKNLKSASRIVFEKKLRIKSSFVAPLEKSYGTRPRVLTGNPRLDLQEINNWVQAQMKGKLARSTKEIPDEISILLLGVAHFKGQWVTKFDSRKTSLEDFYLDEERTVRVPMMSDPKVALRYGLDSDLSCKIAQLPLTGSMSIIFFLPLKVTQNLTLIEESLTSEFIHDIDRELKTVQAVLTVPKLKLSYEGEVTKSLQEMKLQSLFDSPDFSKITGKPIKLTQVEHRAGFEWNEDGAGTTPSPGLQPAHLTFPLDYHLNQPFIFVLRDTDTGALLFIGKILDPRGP
# T7: PEDF EEE variant (S24,114, 227E)
# T7 chain: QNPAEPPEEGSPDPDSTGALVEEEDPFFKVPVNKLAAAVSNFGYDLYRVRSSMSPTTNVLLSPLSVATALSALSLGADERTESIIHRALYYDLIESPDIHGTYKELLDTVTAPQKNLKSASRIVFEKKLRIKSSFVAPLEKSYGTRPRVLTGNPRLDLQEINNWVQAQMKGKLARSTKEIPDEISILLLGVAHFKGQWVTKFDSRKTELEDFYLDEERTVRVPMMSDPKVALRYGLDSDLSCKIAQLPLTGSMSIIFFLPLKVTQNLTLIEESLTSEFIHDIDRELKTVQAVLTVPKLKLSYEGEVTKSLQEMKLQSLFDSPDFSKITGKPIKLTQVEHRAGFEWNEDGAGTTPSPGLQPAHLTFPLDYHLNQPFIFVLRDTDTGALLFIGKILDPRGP
# T8: PEDF AAA variant (S24,114, 227A)
# T8 chain: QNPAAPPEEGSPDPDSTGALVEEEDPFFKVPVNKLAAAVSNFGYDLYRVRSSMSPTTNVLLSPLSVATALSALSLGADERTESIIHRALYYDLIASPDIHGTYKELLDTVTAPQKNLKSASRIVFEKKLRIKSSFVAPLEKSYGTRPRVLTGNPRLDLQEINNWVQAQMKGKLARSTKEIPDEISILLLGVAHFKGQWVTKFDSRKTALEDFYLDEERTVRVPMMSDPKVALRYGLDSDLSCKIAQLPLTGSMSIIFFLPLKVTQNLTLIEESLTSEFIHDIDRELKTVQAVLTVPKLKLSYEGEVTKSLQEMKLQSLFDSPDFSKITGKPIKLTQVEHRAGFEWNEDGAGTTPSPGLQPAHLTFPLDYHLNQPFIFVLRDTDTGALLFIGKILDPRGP
# What was measured:
# [1] = target: T1, PEDF purified from human plasma (plPEDF)
# [2] = target: T2, PEDF S227E variant
# [3] = target: T3, PEDF EEA variant (S24,114E, 227A)
# [4] = target: T4, PEDF S227A variant
# [5] = target: T5, PEDF AAE variant (S24,114A, 227E)
# [6] = target: T6, Recombinant human pigment epithelium …
# [7] = target: T7, PEDF EEE variant (S24,114, 227E)
# [8] = target: T8, PEDF AAA variant (S24,114, 227A)
protein,measurement,setting,value
Recombinant human CK2 (casein kinase CK2) (protein) MSGPVPSRARVYTDVNTHRPREYWDYESHVVEWGNQDDYQLVRKLGRGKYSEVFEAINITNNEKVVVKILKPVKKKKIKREIKILENLRGGPNIITLADIVKDPVSRTPALVFEHVNNTDFKQLYQTLTDYDIRFYMYEILKALDYCHSMGIMHRDVKPHNVMIDHEHRKLRLIDWGLAEFYHPGQEYNVRVASRYFKGPELLVDYQMYDYSLDMWSLGCMLASMIFRKEPFFHGHDNYDQLVRIAKVLGTEDLYDYIDKYNIELDPRFNDILGRHSRKRWERFVHSENQHLVSPEALDFLDKLLRYDHQSRLTAREAMEHPYFYTVVKDQARMGSSSMPGGSTPVSSANMMSGISSVPTPSPLGPLAGSPVIAAANPLGMPVPAAAGAQQ,"in vitro phosphorylation by CK2 ([γ32P]-ATP, SDS-PAGE, autoradiography)",[1],the phosphorylation of the plPEDF by CK2 was significantly lower than CK2 phosphorylation of the rPEDF
same,"in vitro phosphorylation by CK2 ([γ32P]-ATP, SDS-PAGE, autoradiography)",[2],both readily phosphorylated by CK2
same,in vitro phosphorylation by CK2,[3],the triple mutants EEE and EEA were readily phosphorylated by CK2
same,"in vitro phosphorylation by CK2 ([γ32P]-ATP, SDS-PAGE, autoradiography)",[4],both readily phosphorylated by CK2
same,in vitro phosphorylation by CK2,[5],The AAE and the AAA variants almost completely abolished CK2 phosphorylation
same,"in vitro phosphorylation by CK2 ([γ32P]-ATP, SDS-PAGE, autoradiography)",[6],the phosphorylation of the plPEDF by CK2 was significantly lower than CK2 phosphorylation of the rPEDF
same,in vitro phosphorylation by CK2,[7],the triple mutants EEE and EEA were readily phosphorylated by CK2
same,in vitro phosphorylation by CK2,[8],The AAE and the AAA variants almost completely abolished CK2 phosphorylation
